Target: MdWRKY9 (Malus domestica (apple)?, UniProt D9ZJG3 1-520)
Assay: EMSA; EMSA buffer, salt, pH and temperature not given (refers to earlier method, ref. 35); GST added to equalize protein in JAZ assays
Conditions: protein: recombinant; tags: His (pET32a(+)); label: 3' biotin; blunt

Sequence of MdWRKY9 (D9ZJG3 entry or part of it): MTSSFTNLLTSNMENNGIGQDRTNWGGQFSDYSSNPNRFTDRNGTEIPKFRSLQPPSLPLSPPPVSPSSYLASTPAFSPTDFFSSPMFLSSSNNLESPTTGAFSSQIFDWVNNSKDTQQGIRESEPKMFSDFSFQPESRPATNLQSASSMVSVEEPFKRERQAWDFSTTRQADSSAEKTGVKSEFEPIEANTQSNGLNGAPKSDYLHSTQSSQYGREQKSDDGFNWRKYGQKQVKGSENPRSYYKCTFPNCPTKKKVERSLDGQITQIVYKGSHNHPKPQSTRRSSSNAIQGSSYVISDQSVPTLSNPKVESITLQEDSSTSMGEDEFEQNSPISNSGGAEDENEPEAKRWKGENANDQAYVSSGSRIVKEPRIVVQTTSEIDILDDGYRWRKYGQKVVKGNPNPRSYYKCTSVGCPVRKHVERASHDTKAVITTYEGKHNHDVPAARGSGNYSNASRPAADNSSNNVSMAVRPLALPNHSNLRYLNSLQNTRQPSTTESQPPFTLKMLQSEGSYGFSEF

Binder	binding result
MdSOS2 W-box W2 (-149), probe 1 (dsDNA) DNA 1: TCACAGCCACGTGAATTGAATTGACCAATTTTCCAATTCTGTTTAT DNA 2: ATAAACAGAATTGGAAAATTGGTCAATTCAATTCACGTGGCTGTGA	binds
MdSOS2 W2 mutant probe (dsDNA) DNA 1: TCACAGCCACGTGAATTGAATTTCCCAATTTTCCAATTCTGTTTAT DNA 2: ATAAACAGAATTGGAAAATTGGGAAATTCAATTCACGTGGCTGTGA	no binding
MdNHX1 W-box W1 (-1255) (dsDNA) DNA 1: ATCATATTTTTACACTAAAAAGTCAATCTTGGTACTATTTATCTTA DNA 2: TAAGATAAATAGTACCAAGATTGACTTTTTAGTGTAAAAATATGAT	binds
MdNHX1 W1 mutant probe (dsDNA) DNA 1: ATCATATTTTTACACTAAAAAGGAAATCTTGGTACTATTTATCTTA DNA 2: TAAGATAAATAGTACCAAGATTTCCTTTTTAGTGTAAAAATATGAT	no binding
MdSOS3 W-box probe 1 (W4, -127) (dsDNA) DNA 1: TAGTGAAGCACATCCGCTCTAGTCAAAGCAGCTACGCTCACGCGTG DNA 2: CACGCGTGAGCGTAGCTGCTTTGACTAGAGCGGATGTGCTTCACTA	no binding
MdSOS2 W-box W3 (-303), probe 2 (dsDNA) DNA 1: TATGAAAACTGGAACTTGGGTTGACTGAATTTACTTCTAATTTCAT DNA 2: ATGAAATTAGAAGTAAATTCAGTCAACCCAAGTTCCAGTTTTCATA	binds
MdSOS2 W3 mutant probe (dsDNA) DNA 1: TATGAAAACTGGAACTTGGGTTTCCTGAATTTACTTCTAATTTCAT DNA 2: ATGAAATTAGAAGTAAATTCAGGAAACCCAAGTTCCAGTTTTCATA	no binding
